Laboratory results taken from US20230104769A1 (MABWELL SHANGHAI BIOSCIENCE, published 2023).

Assays:
[1] = target: T1, mouse PD-1 (Cat: 50124-M08H, Sino Biological Inc.) (mouse, UniProt Q02242 25-167); experiment: ELISA, plate coated with the PD-1 protein at 1 µg/mL, biotinylated h317, HRP-streptavidin
T1 construct: Bought recombinant protein; also called recombinant mouse PD-1
T1 sequence (looked up): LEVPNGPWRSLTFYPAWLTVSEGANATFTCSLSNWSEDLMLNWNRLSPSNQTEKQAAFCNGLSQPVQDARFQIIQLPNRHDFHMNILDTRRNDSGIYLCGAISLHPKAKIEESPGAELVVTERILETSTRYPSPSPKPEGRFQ
Experimental: (§1) The plates were washed three times with PBS subsequently, and 5% BSA-PBS was added for blocking for 60 min at 37° C. […] Again, the plates were washed four times with PBST, then HRP-streptavidin (Cat: 019-035-098, Jackson immuno Research) with a dilution of 1:100 was added for a 30 min incubation at 37° C. Once again, the plates were washed four times with PBST, and TMB substrate was added for developing color through incubating for 10 min at 37° C., then the reaction was terminated by adding 2 M HCl. With 630 nm as reference wavelength, the absorbance at a wavelength of 450 nm (A450 nm-630 nm) of each well in the plates was read and recorded.

[2] = target: T2, rat PD-1 (Cat: 80448-R08H, Sino Biological Inc.) (rat, UniProt D3ZIN8 25-169); experiment: as above
T2 construct: Bought recombinant protein; also called recombinant rat PD-1; not shown: The vendor's tag
T2 sequence: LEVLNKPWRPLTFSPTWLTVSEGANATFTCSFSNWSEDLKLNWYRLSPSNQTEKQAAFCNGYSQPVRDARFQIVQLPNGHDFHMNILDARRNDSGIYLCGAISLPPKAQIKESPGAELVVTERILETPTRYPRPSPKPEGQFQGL
Experimental: as §1

[3] = target: T3, human PD-1-hFc (NCBI accession No.: NP_005009.2, 21aa-167aa, Lot: 20180329) (human, UniProt Q15116 21-167); experiment: competition ELISA, plate-bound PD-1-hFc, competitor PD-L1-mFc 1 µg/mL; competitor PD-L1
T3 construct: range 21-167; not shown: human Fc (hFc)
T3 sequence (Q15116 21-167 limits assumed, form in doubt): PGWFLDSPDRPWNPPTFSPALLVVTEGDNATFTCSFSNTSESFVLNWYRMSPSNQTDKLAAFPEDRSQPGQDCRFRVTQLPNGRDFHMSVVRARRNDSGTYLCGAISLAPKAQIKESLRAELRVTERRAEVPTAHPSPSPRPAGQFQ
Experimental: Afterwards, HRP-anti-mouse Fc (Cat: 115-035-071, Jackson Immuno Research) which was diluted at a dilution of 1:5000 was added to the plate for reacting for 45 min. Later, TMB substrate (Cat: ME142, Beijing Taitianhe Biotech Co., Ltd.) was added to develop color for 15 min, which was followed by the addition of 2 M HCl to terminate the reaction and then the plate was detected by a microplate reader. With 630 nm as reference wavelength, the absorbance at 450 nm (A450 nm-630 nm) of each well in the plate was read and recorded.

[4] = target: T4, recombinant human PD-1 protein (NCBI accession No.: NP_005009.2, 21aa-167aa) (human, UniProt Q15116 21-167); experiment: BLI (Octet QKe), biotin-labelled antibody on streptavidin sensor, PD-1 100 nM-12.5 nM
T4 construct: range 21-167; also called recombinant human PD-1 extracellular domain protein; PD-1-ECD
T4 sequence (Q15116 21-167 limits assumed, form in doubt): as above
Experimental: Determination of the binding kinetics: the affinity of the antibody was determined with Octet QKe system from Fortebio using an assay of capturing biotin-labeled antibody with streptavidin. […] Both the binding and dissociating were conducted for 300 s.

B1: h317 (humanized anti-human PD-1 antibody) (antibody, V domains shown)
VH: EVQLVESGGGLVKPGGSLRLSCAASGFTFSSYDMSWVRQAPGKGLEWVATISGGGSYTYYPDSVKGRFTISRDNAKNSLYLQMNSLRAEDTAVYYCASPDSSGVAYWGQGTLVTVSS
VL: DIVMTQSPLSLPVTPGEPASITCKASQDVETVVAWYLQKPGQSPRLLIYWASTRHTGVPDRFSGSGSGTDFTLKISRVEAEDVGVYYCQQYSRYPWTFGQGTKL
notes: also called h317-biotin; biotinylated h317
B1 was tested, and the binding result [1] was “no binding (tested: 1 nM (log(nM) 0 on the axis))”, the binding result [2] was “no binding (tested: 1 nM (log(nM) 0 on the axis))” and the IC50 [3] was 1.4 nM. The Kd [4] was 6.16 nM, the koff [4] was 0.00095 s⁻¹ and the kon [4] was 154000 M⁻¹ s⁻¹.
